Data on two molecules can be found in US20210403582A1 (JACOBIO PHARMACEUTICALS, published 2021).

Where two headings read alike, the source gives them in different places.

For experiment [1], the target named is T1, human LIF protein (human, UniProt P15018 23-202).
T1 construct: Bought recombinant protein (Sino Biological / Yiqiao Shenzhou 14890-HNAH) in most assays; also called recombinant human LIF protein; rhLIF
As to the kind of experiment: ELISA, antigen coated 0.5 ug/ml, 293S supernatant non-heated, antibody 1 ug/mL. The method, then: (§1) Each well was coated with 100 μL of 0.5 μg/ml antigen and incubate overnight at 4° C., and the plates were washed three times with 300 μL of Wash Buffer. The plates were closed with 200 μL of Closure Buffer (2% bovine serum albumin) for 60 min at room temperature. The plates were washed three times with 300 μL of Wash Buffer. 100 μL of diluted anti-LIF antibody at different concentrations was added to each well and incubate for 1 hour at room temperature. The plates were washed 4 times with 300 μL of Wash Buffer. 100 μL of HRP-labeled goat anti-human Fc secondary antibody at a dilution of 1:5000 was added and incubate for 1 hour at room temperature. The plates were washed 6 times with 300 μL of Wash Buffer. 100 μL of H₂O₂-Amplx Color Development Solution was added for developing the color for 10 min at room temperature under dark conditions. The OD 450 value was read by an enzyme marker. Heat treatment: the expression medium was heated on the PCR machine at 70° C. for 5 min and then rapidly cooled to room temperature. Perform subsequent ELISA assays as above.
On the technique in general: In an ELISA, binding on a coated surface is turned into a signal by an enzyme label.

For experiment [2], the target named is T2, Mut4 heterozygous LIF protein (human LIF with residues 166-202 of …, UniProt P15018 23-201, limits assumed).
T2 construct: Secreted into the supernatant of transfected 293T cells; also called Mut4 protein
As to the kind of experiment: western blot of 293T culture supernatants, primary antibody 1 µg/mL, HRP anti-human Fc. The protocol: (§2) The supernatant of 293T cells transfected with human LIF full-length gene sequence, Mut3 and Mut4 protein sequences after 3 days of culture, and the negative control of 293T cell culture supernatant were taken, 5×SDS-PAGE loading buffer was added, and boiled for 10 minutes. Then 10 μL of sample was taken for SDS-PAGE electrophoresis, and then the electrophoretic bands were transferred to PVDF membrane for western blot detection. The primary antibody for detection was 38E huH3L2 or 38E huH3L4 antibody at a concentration of 1 μg/mL, and was incubated for 2 hours at room temperature. Then washed three times in PBST buffer and diluted HRP-labeled sheep anti-human Fc secondary antibody at a dilution ration of 1:3000 was added, incubated with the secondary antibody for 2 hours at room temperature, washed three times in PBST buffer and enhanced Chemiluminescent solution (Perice, item no. 34079) was added and incubated. An Amersham Imager 600 ultra-sensitive multifunctional imager was used for detection and photograph. […] The same results were obtained in the M1 cell proliferation assay, and the results were detailed in subfigure B in FIG. 22. Therefore, the epitope sequences recognized by the 38E huH3L2 and 38E huH3L4 antibodies were determined to be […] (SEQ ID NO: 61).
In general terms: A western blot detects proteins with antibodies after separation by electrophoresis.

Experiment [3] concerns the target T3, Mut3 heterozygous LIF protein (human LIF with residues 182-202 of …, UniProt P15018 23-201, limits assumed).
T3 construct: Secreted into the supernatant of transfected 293T cells; also called Mut3 protein
The experiment is described as above. The method, then:
as §2

In experiment [4] the target is T1, human LIF protein. As to the kind of experiment: cell-based or functional assay.
The target in experiment [5] is T1, human LIF protein. As to the kind of experiment: ELISA, antigen coated 0.5 ug/ml, 293S supernatant heated 70 C 5 min, antibody 0.04 ug/mL. The method, then: as §1
For experiment [6], the target named is T1, human LIF protein. As to the kind of experiment: ELISA, antigen coated 0.5 ug/ml, 293S supernatant non-heated, antibody 0.2 ug/mL. The protocol:
as §1

Experiment [7] concerns the target T1, human LIF protein. As to the kind of experiment: ELISA, antigen coated 0.5 ug/ml, 293S supernatant heated 70 C 5 min, antibody 0.2 ug/mL. The method, then:
as §1

The target in experiment [8] is T1, human LIF protein. As to the kind of experiment: ELISA, antigen coated 0.5 ug/ml, 293S supernatant heated 70 C 5 min, antibody 1 ug/mL. The method, then:
as §1

Experiment [9] addresses T1, human LIF protein. As to the kind of experiment: BLI (Gator), antibody on anti-human Fc biosensor, human LIF in solution. The protocol:
The affinity of anti-LIF antibody to human LIF protein was determined using Gator. The anti-human LIF antibody was first diluted to 5 ug/mL with PBS and then added to A-F wells in second column of the 96-well plate (200 μL per well). […] PBS was added to A-F wells in the first and third columns (200 μL per well). The 96-well plates were placed into the instrument and detected with anti-human Fc biosensor.

The target of experiment [10] is T1, human LIF protein. As to the kind of experiment: ELISA, antigen coated 0.5 ug/ml, 293S supernatant non-heated, antibody 0.04 ug/mL. The method, then:
as §1

The target in experiment [11] is T4, recombinant mouse LIF protein (mouse, UniProt P09056 24-203). As to the kind of experiment: ELISA, mouse LIF coated at 1 µg/mL, A450. The method, then: (§3) The recombinant mouse LIF protein (purchased from ACRO Biosystems) was diluted to 1 μg/mL, and was coated on the enzyme label plate, 100 μL of protein was added into every well, and incubated overnight in 4° C. The enzyme label plates were taken out next day, and the liquid was discarded, and were washed with PBST three times and blocked with 2% BSA in PBS for 1 h at room temperature, then washed with PBST three times, and added anti-human LIF antibodies 38E10E1C11, 5D8 and P36-033 at different concentrations and incubated for 1 h at room temperature. The liquid was discarded, and the plates were washed with PBST four times. The plates were added with HRP-labeled goat anti-mouse Fab antibody or goat anti-human FC antibody and incubated for 1 h at room temperature. Then the liquid was discarded, and the plates were washed four times with PBST and incubated with TMB colored solution in 10 minutes at room temperature. Stop color development by adding 2 mol/L H₂SO₄, and the absorption value at 450 nm is quantitated using an automated plate photometer, and the results were shown in FIG. 2.

The next experiment addresses T5, human CNTF (human, UniProt P26441 1-200, limits assumed).
T5 sequence (looked up): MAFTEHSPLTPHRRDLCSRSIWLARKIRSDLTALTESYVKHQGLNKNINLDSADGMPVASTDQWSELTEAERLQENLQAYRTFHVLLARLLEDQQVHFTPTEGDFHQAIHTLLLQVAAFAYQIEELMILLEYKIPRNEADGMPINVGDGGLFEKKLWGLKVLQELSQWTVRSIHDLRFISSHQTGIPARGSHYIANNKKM
As to the kind of experiment: ELISA, human CNTF coated at 1 µg/mL, A450, bar chart of eight antibody concentrations. The method, then: (§4) The human LIF, human IL-6, human OSM, human CNTF (purchased from Sino biological) were coated on the enzyme label plate at a concentration of 1 μg/mL separately, and the anti-human LIF antibodies 38E10E1C11, P36-033 and 5D8 at different concentrations were added separately and incubated for 1 h at room temperature. Then the plates were washed four times with PBST and incubated with HRP-labeled goat anti-mouse FC secondary antibody for 1 h at room temperature. Then the plates were washed four times with PBST and added with TMB colored solution for color development at room temperature for 10 minutes. The absorption value at 450 nm is quantitated by the enzyme-labeling measuring instrument, and the data was analyzed and plotted using Origin pro 9 software.

The target in experiment [12] is T4, recombinant mouse LIF protein. As to the kind of experiment: ELISA, mouse LIF coated at 1 µg/mL, A450. The protocol:
as §3
The source holds these as a separate data set.

The target in experiment [13] is T1, human LIF protein. As to the kind of experiment: ELISA, human LIF coated at 1 µg/mL, A450. The method, then: as §3, with “recombinant human” for “recombinant mouse”, “protein” for “protein (purchased from ACRO Biosystems)”, “μg/mL,” for “μg/mL, and”, “of the” for “of”, “FIG. 1.” for “FIG. 2.”
The target of experiment [14] is T1, human LIF protein. As to the kind of experiment: ELISA, human LIF coated at 1 µg/mL, A450. The method, then: as §3, with “recombinant human” for “recombinant mouse”, “protein” for “protein (purchased from ACRO Biosystems)”, “μg/mL,” for “μg/mL, and”, “of the” for “of”, “FIG. 1.” for “FIG. 2.”
This is another data set of the same source.

In another experiment the target is T6, human OSM (human, UniProt P13725 26-221, limits assumed).
T6 sequence (looked up): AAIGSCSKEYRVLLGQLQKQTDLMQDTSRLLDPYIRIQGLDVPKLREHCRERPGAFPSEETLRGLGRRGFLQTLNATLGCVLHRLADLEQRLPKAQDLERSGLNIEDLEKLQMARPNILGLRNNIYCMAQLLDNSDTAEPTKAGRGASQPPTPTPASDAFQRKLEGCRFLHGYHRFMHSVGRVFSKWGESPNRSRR
As to the kind of experiment: ELISA, human OSM coated at 1 µg/mL, A450, bar chart of eight antibody concentrations. The protocol:
as §4

B1: 38E HuH3L4 (antibody, human IgG1, kappa, N297A)
heavy: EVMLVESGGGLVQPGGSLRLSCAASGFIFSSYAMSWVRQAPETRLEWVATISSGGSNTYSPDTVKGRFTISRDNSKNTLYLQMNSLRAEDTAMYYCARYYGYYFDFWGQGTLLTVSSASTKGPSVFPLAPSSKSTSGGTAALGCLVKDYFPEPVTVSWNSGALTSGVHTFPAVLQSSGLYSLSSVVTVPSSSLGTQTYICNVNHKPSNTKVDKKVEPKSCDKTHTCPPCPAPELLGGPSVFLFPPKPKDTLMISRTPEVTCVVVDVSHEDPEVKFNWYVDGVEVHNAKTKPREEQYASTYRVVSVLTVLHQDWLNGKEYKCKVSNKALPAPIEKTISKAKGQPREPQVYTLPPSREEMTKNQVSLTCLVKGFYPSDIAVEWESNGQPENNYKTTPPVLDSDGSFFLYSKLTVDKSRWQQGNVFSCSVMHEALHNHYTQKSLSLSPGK
light: DIHMTQSPSSLSASVGDRVTITCRASENIYSYLAWYQQKQGKSPQLLVYNAKTLAEGVPSRFSGSGSGTQFTLKINSLQPEDFATYYCQHHYVTPLTFGQGTKLEIKRTVAAPSVFIFPPSDEQLKSGTASVVCLLNNFYPREAKVQWKVDNALQSGNSQESVTEQDSKDSTYSLSSTLTLSKADYEKHKVYACEVTHQGLSSPVTKSFNRGEC
notes: Humanized, human IgG1 / kappa
B1: the ELISA signal with human LIF protein [1] worked out at 11900; with human LIF protein [5], 5300; with human LIF protein [6], 11200; in the experiment with human LIF protein [7], 9060; with human LIF protein [8] it was 9950; in the experiment with human LIF protein [10], 7060. Besides, the binding result is “no binding (tested: primary antibody 1 µg/mL)” in [2] and “binds” in [3]. The “IC50, P-STAT3 (TYR705) in KP4 cells, HTRF kit” value with human LIF protein [4] worked out at 3.42 nM. Also, binding with human LIF protein [9] was characterised by a dissociation constant (Kd) of 0.0766 nM. The koff (commonly the rate constant with which the complex falls apart) with human LIF protein [9] was determined as 4.44e-05 s⁻¹. In addition, the kon – broadly, a measure of how fast the partners come together – with human LIF protein [9] came to 579000 M⁻¹ s⁻¹.

B2: 5D8 antibody (positive control) (antibody, human IgG1, kappa, V domains shown)
VH: QVQLQESGGGLVKPGGSLRLSCAASGFTFSHAWMHWVRQAPGKGLEWVGQIKAKSDDYATYYAESVKGRFTISRDDSKNTLYLQMNSLKTEDTAVYYCTCWEWDLDFWGQGTMVTVSS
VL: DIVMTQTPLSSPVTLGQPASISCRSSQSLLDSDGHTYLNWLQQRPGQPPRLLIYSVSNLESGVPDRFSGSGAGTDFTLKISRVEAEDVGVYYCMQATHAPPYTFGQGTKLEIKR
As for B2, the EC50 (read off the curve) (as a rule, the concentration at which the effect is half-maximal) in experiment [11] is ~0.3 µg/mL; in experiment [12], ~0.4 µg/mL; with human LIF protein [13] it was ~0.2 µg/mL; in the experiment with human LIF protein [14], ~0.8 µg/mL. The binding result in the experiment with human CNTF and with human OSM was “binds” each time.
